The text below walks through data of FireProtDB (doi:10.1002/pro.5560070624).

B1: Ferrienterobactin receptor, P05825 (parent)
chain: MNKKIHSLALLVNLGIYGVAQAQEPTDTPVSHDDTIVVTAAEQNLQAPGVSTITADEIRKNPVARDVSKIIRTMPGVNLTGNSTSGQRGNNRQIDIRGMGPENTLILIDGKPVSSRNSVRQGWRGERDTRGDTSWVPPEMIERIEVLRGPAAARYGNGAAGGVVNIITKKGSGEWHGSWDAYFNAPEHKEEGATKRTNFSLTGPLGDEFSFRLYGNLDKTQADAWDINQGHQSARAGTYATTLPAGREGVINKDINGVVRWDFAPLQSLELEAGYSRQGNLYAGDTQNTNSDSYTRSKYGDETNRLYRQNYALTWNGGWDNGVTTSNWVQYEHTRNSRIPEGLAGGTEGKFNEKATQDFVDIDLDDVMLHSEVNLPIDFLVNQTLTLGTEWNQQRMKDLSSNTQALTGTNTGGAIDGVSTTDRSPYSKAEIFSLFAENNMELTDSTIVTPGLRFDHHSIVGNNWSPALNISQGLGDDFTLKMGIARAYKAPSLYQTNPNYILYSKGQGCYASAGGCYLQGNDDLKAETSINKEIGLEFKRDGWLAGVTWFRNDYRNKIEAGYVAVGQNAVGTDLYQWDNVPKAVVEGLEGSLNVPVSETVMWTNNITYMLKSENKTTGDRLSIIPEYTLNSTLSWQAREDLSMQTTFTWYGKQQPKKYNYKGQPAVGPETKEISPYSIVGLSATWDVTKNVSLTGGVDNLFDKRLWRAGNAQTTGDLAGANYIAGAGAYTYNEPGRTWYMSVNTHF

The data set covers variants of B1. To be noted: Escherichia coli (strain K12); pH 7; 25 °C; GdnHCl; ESR; MOPS 20 mM; structure 1FEP; whole UniProt chain shown.

On to G274C, for which the denaturant m value was found to be 5.28 kcal/mol/M and the “denaturant midpoint (higher = more stable)” value (from here on “denaturant midpoint”) amounted to 1.5 M.

Turning to L266C, the denaturant m value is 3.25 kcal/mol/M and the “denaturant midpoint” value was 2.28 M.

In the case of S276C, the denaturant m value came to 4.61 kcal/mol/M and the “denaturant midpoint” value was 1.29 M.

Take E270C: the denaturant m value is 4.08 kcal/mol/M and the “denaturant midpoint” value stood at 1.65 M.

For Q278C, the denaturant m value was determined as 1.31 kcal/mol/M and the “denaturant midpoint” value is 1.91 M.

Take E272C: the denaturant m value was 5.76 kcal/mol/M and the “denaturant midpoint” value was determined as 1.57 M.

S268C: the denaturant m value worked out at 4.21 kcal/mol/M and the “denaturant midpoint” value is 1.77 M.
